Results from the DeepSol protein solubility set.

Assay: soluble on expression in E. coli; label from the status in PepcDB or PDB records

| Sequence | soluble on expression in E. coli |
| --- | --- |
| MEALIAYSGRRFARPHYYANAHERDEVDIVPVQMAMHDARAAGTGIDREGFQIVKHTSAVTDFADREQVARIHMREIEELVRAETGADMVHVGAPGLLRFSEKSGRAGSLNNSMPARFAHIDISDRTAQAFGERGANGRPFVRCAAYNVWRAISPPPQDVPLAFCDARSLAPGDLIEADAVFDEPGKPEWSFEGLVVAHNPAHRWYFFPDMRIDEAVLFKTNDSDPARAHHVPHVAFDLPDCPADAPPRVSIEMRATAYWWALEHHHHHH | soluble |
| MEALVVVHKVASEGGRRPKTTVSDESGSHSREKGKSFQVKDSPENNYATGKVDSLERSHFSSSYNQERRQSEEQRR | soluble |
| MEASRLLLLEDSSVDAELIEDQLSRLSPPPAVTRAVGKASFIEALEKQQFDIILADFSLPDFDGMSALDLVMRTRPDTPFIFVSGILGEDAAIDAFRRGATDYVLKQRLVRLPSAVERALAEAREKQERKRAELHKELLVRELSHRVKNTMAMVVSIIRRTAKGSTSIKDYQERLVARVSALAESHALLFQSNWGETNLRDVVKRAIEPHNTFASRVELEGPDGVHVSPKSALALGMILHELATNAQKYGSLSGANGKVEVFWKKILNGDGNDCIDLRWQESGGPPVSVPQDTGFGTTLITRGVQYELQAESEIRYDPDGLQYRVIFPLD | not soluble |
| MEAVKTFNSELYSLNDYKPPISKAKMTQITKAAIKAIKFYKHVVQSVEKFIQKCKPEYKVPGLYVIDSIVRQSRHQFGQEKDVFAPRFSNNIISTFQNLYRCPGDDKSKIVRVLNLWQKNNVFKSEIIQPLLDMAAALEHHHHHH | soluble |
| MEAVVVEREAKGMKEIAIQEKDLTLQWRGNTGKLVKVRLKNTRAMEMWYNKQITEENIQEITTLNIIKNGKSLALEVYPEKSIYVKPNLGRINVPVFFIKTPINRGVFEEIFGETLKA | soluble |
| MEDDDLLPLSALQHYLYCPRQCALIHLEQQWEDNAQTAEGRLLHERADKPAMETRRGVRTASAMALASPRLGIAGVADIVEFHDWSDGERAYPVEYKRGRPKAHRADEVQLCAQALCLEDMLGAAIPEGALYYGKTRRRRPVAFDNALRRLTLETIAAARAMFDSRQTPRMGYEARRCDACSLLERCQPRLLDRAQSVDQWLKQQWDALEHHHHHH | not soluble |
| MEDGDSAEAFRAFAAGVALQREDPSPLWVQLKNRIEHAILDGTLPENARLPSEQAMCSMFDLSRPVIRNALQALAGEGRVIKQPRKGMFVAPRAPELAFMTSALGVFDDLSAKGYKVTVKTYEFGLHPANEDERRVFKLPEGFQVIRALRVYHANETPLTHTLISLPAHRLPGFEKLDMEGRSIFGTIRELYGLTVARADRWLKGAIVPPEVAARMGVPPGGAMIAIESVAYDHDGNALEYYRAYYNSEVAPIHVATDAH | not soluble |
| MEDKNSVIVFKNVSFQYQSDASFTLKDVSFNIPKGQWTSIVGHNGSGKSTIAKLMIGIEKVKSGEIFYNNQAITDDNFEKLRKDIGIVFQNPDNQFVGSIVKYDVAFGLENHAVPYDEMHRRVSEALKQVDMLERADYEPNALSGGQKQRVAIASVLALNPSVIILDEATSMLDPDARQNLLDLVRKVKSEHNITIISITHDLSEAMEADHVIVMNKGTVYKEGTATEIFDNAEELTRIGLDLPFPIKINQMLGHQTSFLTYEGLVDQL | not soluble |
| MEDNRLVINRHRATQVLFQLVNISTQLSYQFFCKDSVLLLRIVQKIQSNSWLTSCCARKTVTTLRIKTQPANNKH | not soluble |
| MEDPVTGPEEVSGQEQGSLTVQCRYTSGWKDYKKYWCQGVPQRSCKTLVETDASEQLVKKNRVSIRDNQRDFIFTVTMEDLRMSDAGIYWCGITKGGLDPMFKVTVNIGPVPT | soluble |
| MEEEILSFVSIQSHVSSAGEKPIHVLDENPKFSRLHPSPSNIDSGEDSTSINKSNMESYGFSPVKIIEALIRETTAQGNVNMQRKSLFFPTQISDLFPAILNSKRKTG | soluble |
| MEEHLSVMYERLRQELPKLFLQSHDYSLYSLDVEFINEILNIRTKGRTWYILSLTLCRFLAWNYFAHLRLEVLQLTRHPENWTLQARWRLVGLPVHLLFLRFYKRDKDEHYRTYDAYSTFYLNSSGLICRHRLDKLMPSHSPPTPVKKLLVGALVALGLSEPEPDLNLCSKP | not soluble |
| MEEKKDFYDTDELRDFMALVEKTNDIKKIALFRILAFTGIRKGELLALEWKDYRKSTLDINKAISHSPVGYEILPPKANSNRLLSLDEKTCKILDELHQTYPESTRIFESENGGMLSPSKPRKWLLEITKEKEIEPIRIHAFRHTHASLLFESGMSLKQVQYRLGHADLKTTMNIYTHITKLEHHHHHH | soluble |
| MEEKLLVNLKENSYNIFIKKNILKNIGEEIKKIYFGNKIFIVTDENIAKLYLDKVKNNLSESGFEIKSLILKSGEETKSFNTLPKIYDSLLDFKLTRKDLIITLGGGVIGDLGGFAAATFLRGISFIQIPTSLLAQVDSSVGGKVGVDLERGKNLVGSFYQPKAVFIDPNVLLSLPEKFYRDGMAEVIKYGCIKDKTFFNKLLSLKNREEVMQHIEYIIHKCCFIKKTVVEADEKDFGDRMLLNFGHTLGHAIEKYYNFTGYTHGEAVAIGMYKITLESEKIGITKKGTSELIKSILMNYNLPYEIELRDNKSIVDAISLDKKNLGDTLKIILLKDIGESIIYNTTSKFFQEVR | not soluble |
| MEETVDQAANSRTISLPISRVRLIMKSSPDVSCINQDALFLTTKATELFVQHLALSSYENGPSKDTNTLSYSDLADTVEETETFQFLTDILPKKILARDYLKTLEEMEKEDDNM | not soluble |
| MEEVGGNGGPARIAECGKIGSGTINSNVVPSVNLPSPSVKPSVTPSVKKPPHVIRSDYSKPREKPAKVAKKPTVKNDKKPKPVAIVAPTGIIKTFKTTPNPNRNL | soluble |
| MEFEFIRNTLMGEYYVKCSMGHEIVGRWLQEEIGKDPTMIAQVEALIDKAFSLPSQEHTLTGTEISLMIQGDEVLVQENALSHDYDVEMESEFDFYDAESTASCGIEDFVALIEQWKDFLNI | not soluble |
| MEFLLLDDRENLKLAIIRKLEQQYSFSERKDRLCKQLAISPYLLERNITEINADLQRFGLINEMEISEKNNEILLSQSLRISSSIIEEYYLKDSLEFNLLKTIFFHQFTSIKKYGEKHGMSRTVVYKIVDHIRKELGQYGIKLSKNLQLSGNEMAIRQYFTMLYYRIYKDSEELYNQTDLRAVNQLLAQLKGSYENITNFHLFKHYVLVALERTQRKANYFLSQEENPFAFDEESSIYQEIQSWINEVMKATHAEKNAEIQGIIGNLSVYQSELISEHLLSSHNEAITATKTLFFSYMPFTISDEEFYQEIVPIIYQHRFITPFIDITLRIMDLEFFQERYPIVFNSCRQFLFALDCSAFEFSKLSLFFDLLLVLSRLYDQRNEKSTINLYVNFTQGEKYTQFIKEQIKIFESFSIHFHSAIRPDTDLVVSDYLPKTLFSVKCLIWLAPPRASDWQNFGNEIVRINKELQQTKQRKSE | not soluble |
| MEFRQLRSFVEVVRQGSFTQAAQVRHASQSTISKQVAQLEQSLGVQVLERNGPHVRLTDAGAVVFRRAEEMLRLRRDLLSELDDLSQLNRGELRLGLPLLGADALFAQRFAEYRRRYPNIAVHLVEGGSKTMEQAVLAGELELAGSLTPADDGFDYQPFCNEPLDVLLPAGHPKAAAASVALGELADSPFLLYQQSFTLNDRLLRACLEAGFSPREGGRSGQADFLGALVAANQGVVLLPRVIAREIERPGVVRVLLREPDLRWDIAFIWRRGGYLSRAAQAWLELLREQPLEESPA | not soluble |
| MEFYSQSRFSNWVNKIAETELDEDNPETFAVFDQMLEDVIIACLSIIRAVKEREIRKADAVKEVEKILGLIPNHDFGDELKNELFQFTLESIKAVLLSFRLYFEGKISKKSFEALLKDALKKEQSGDYEGSLNAVAQMGAKVIKGEQLPELDIPEDSAVISWIDGIDAISSVLELSKIDAPTE | not soluble |
| MEGAVIKVIGLGGAGNNAVNRMIEAGLSGVEFIAANTDAQVLAKSLADHRIQLGEKLTRGLGAGANPEIGEKAALEAEDLIAEALEGADLVFITAGMGGGTGTGSAPVVADIAKRLGALTVAVVTRPFSFEGPKRMRAAEEGIKKLKERVDAMVVVQNDRLLSAVDKKMTLKDAFLIADRVLYHGVKGITDVINLPGLINVDFADVKALLEGAGQVLMGIGAGRGENRVEEAAKSAIHSPLLERSIEGAKRLLLNVVGSEELSLMEAAEVVERIREATGHEDVDILYGVTYDERAQDELRVILIAAGFAESTVVPRPARPVDFPTGHVDLTNYDIPAFIRYGDGDYPPRRGN | soluble |
| MEGLQRSTISFRRQGSSGIVFDDRLIAELNKSGNNEQKDESQRDEQPKPMSESSEQVKPIDEKDKLRPIKTGGGAPGGIERSRSNGGGAQRHHRTTGRVSPAVDPPSPRISSCGCCSAFGKNPPGKKVNPRKRPPKRRSR | not soluble |
| MEGQTHDAQNNVPEHDNPLMNVKNPSSNLFSKKDAQCLSVLCNGKWLQIVRSSPKVSCEASTCPSHILTKVGENYVAESEKMHKKVISFSSKTFSQGTLQFTMRANGTPHFVFKLENQKDVYVASLSSNVQDQNSYMIHLQRGESSASSSHLVGRINVSTLFSEKVLEREFVLFSSNGENLKIPRTRKNRGLSKKVVHAVKNERRTARLSRTSFIPDLGSWDEQFQAQNYDCLLKNKLPTNLETLAVVVKQETIEDEIGGWGLKFLKRSPMFQRSNDASETETSTSSISMNVVIPSGIHGGPEDGPSSLIERWKSQGNCDCGGWDLCCSLTLLKGQPRKDQYFELFIEVKLSFISSNTSIL | not soluble |
| MEGVQEVEIDAPLSGWHPAEGEDASFSQSINYPASSVNMADDQNISAQIRGKIKNYAAAGKVQQGRLVVNGASMPQRIESDGSFARPYIFTEGSNSVQVISPDGQSRQKMQFYSTPGTGTIRARLRLVLSWDTDNTDLDLHVVTPDGEHAWYGNTVLKNSGALDMDVTTGYGPEIFAMPAPIHGRYQVYINYYGGRSETELTTAQLTLITDEGSVNEKQETFIVPMRNAGELTLVKSFDWLEHHHHHH | not soluble |
| MEIDEGKYECEACGYIYEPEKGDKFAGIPPGTPFVDLSDSFMCPACRSPKNQFKSIKKVIAGFAENQKYG | soluble |
| MEIGVVGKPNVGKSTFFSAATLVDVEIANYPFTTIEANVGVTYAITDHPCKELGCSPNPQNYEYRNGLALIPVKMVDVAGLVPGAHEGRGLGNKFLDDLRMASALIHVVDATGKTDPEGQPTDYHDPVEDIEFLEREIDYWIYGILSKGWDKFAKRIKLQKIKLESAIAEHLSGIGVNENDVWEAMHKLNLPEDPTKWSQDDLLAFASEIRRVNKPMVIAANKADAASDEQIKRLVREEEKRGYIVIPTSAAAELTLRKAAKAGFIEYIPGASEFKVLRDMSEKQKRALMVIKEKVLDRFGSTGVQEVINRVVFDLLKLIPVYPVHDENKLTDQFGNVLPHVFLMKKGSTPRDLAFKVHTDLGKGFLYAINARTKRRVGEDYELQFNDIVKIVSVTR | soluble |
| MEILYIKGDATAPIGSGVKVITHICNDIGGWGKGFVLALSKKWKMPEEAYRQWYKSQEEFTLGAVQFVNVENKLYVANMIGQHGIYKDSKGLPPIRYDAVRQCLKEVALFTIAHKASVHMPRIGCGLAGGKWELMEQIIKEELITKEIAVTVYDLMAGDPLEHHHHHH | soluble |
